Assay results reported in article PMC6980540.

Tests used:
[1] = biological target: Spa47 (Shigella T3SS ATPase), wild-type (S. flexneri) (UniProt P0A1C1)
[2] = biological target: Spa47 (Shigella T3SS ATPase), wild-type (S. flexneri) (UniProt P0A1C1); remark: listed apart in the source

**Q.** “Spa47 (Shigella T3SS ATPase), wild-type (from UniProt P0A1C1 1-430) (enzyme)” was tested. Which ATP hydrolysis rate (normalized for enzyme concentration) of monomeric Spa47 as a function of enzyme concentration [1] did it give?
**A.** 3 fold

**Q.** And the ATPase activity of the Spa47 oligomer formed in vitro by concentrating the monomer to ~200 μM ((μmol ADP/min) /mg Spa47) [2]?
**A.** 1.5

**Q.** And the ATPase activity of the isolated monomeric Spa47 before its conversion to oligomer ((μmol ADP/min) /mg Spa47) [2]?
**A.** 0.11
